Source: US20260297200

Biological target: EGFR-His (human ECD) (human)
Assay: BLI

- Kd: 1.69 nM
Substance: Cetuximab Fab-His
